Biological target: gp53C, C-terminal fragment of gene product 53 (gp53) of Acinetobacter baumannii bacteriophage AP22 (Acinetobacter baumannii bacteriophage AP22)
Assay: crystal structure

## gp53C, C-terminal fragment of gene product 53 (gp53) of Acinetobacter baumannii bacteriophage AP22 (domain or fragment)
  stoichiometry N: 3
